According to PMC2171732 (The Journal of Cell Biology, 2005):

Biological target: T1, Myo2p globular tail subdomain II (residues 1346–1574), tryptic fragment (S. cerevisiae, UniProt P19524 1346-1574)
T1 sequence (looked up): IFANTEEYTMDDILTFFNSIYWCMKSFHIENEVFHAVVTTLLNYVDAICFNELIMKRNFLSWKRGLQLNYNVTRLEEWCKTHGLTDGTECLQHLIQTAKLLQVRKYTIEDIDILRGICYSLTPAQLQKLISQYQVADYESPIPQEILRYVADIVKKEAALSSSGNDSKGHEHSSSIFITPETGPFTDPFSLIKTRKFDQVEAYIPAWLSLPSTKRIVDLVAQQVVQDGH
Experiment: SEC

B1: Myo2p globular tail subdomain I (residues 1131–1345), tryptic fragment (domain or fragment, S. cerevisiae, UniProt P19524 1131-1345, looked up)
chain: STPSSGNNHIDSLSVDRENGVNATQINEELYRLLEDTEILNQEITEGLLKGFEVPDAGVAIQLSKRDVVYPARILIIVLSEMWRFGLTKQSESFLAQVLTTIQKVVTQLKGNDLIPSGVFWLANVRELYSFVVFALNSILTEETFKNGMTDEEYKEYVSLVTELKDDFEALSYNIYNIWLKKLQKQLQKKAINAVVISESLPGFSAGETSGFLNK
Kd: ≤ 1 nM
